Measured values taken from publication PMC6405639 (2019).

Molecular target: Y2R_cysteine_deficient_eYFP (in HEK293 cells) (human, UniProt P49146 1-381, C58^1.40A | C103^2.57S | C151^3.53S | C272^6.39A | C316^7.44A | C342^7.70A)
Sequence (P49146 other isoform, or with tags, fused parts or gaps with the stated changes): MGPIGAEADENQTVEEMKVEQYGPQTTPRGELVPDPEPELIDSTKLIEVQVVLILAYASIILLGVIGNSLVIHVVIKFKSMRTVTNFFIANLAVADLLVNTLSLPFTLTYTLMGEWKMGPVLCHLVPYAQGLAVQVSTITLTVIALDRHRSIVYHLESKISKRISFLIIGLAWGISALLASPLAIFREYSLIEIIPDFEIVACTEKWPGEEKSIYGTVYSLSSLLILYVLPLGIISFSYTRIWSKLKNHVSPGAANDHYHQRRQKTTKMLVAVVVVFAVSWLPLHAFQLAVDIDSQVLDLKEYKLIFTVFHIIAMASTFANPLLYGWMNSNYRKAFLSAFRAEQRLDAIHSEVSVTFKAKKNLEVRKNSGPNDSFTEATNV

- IC50: 8.2 nM
B1: Porcine neuropeptide Y (peptide)
peptide: not shown
modifications: C-terminal amide
